Tests used:
human CD80-Avi-tag = molecular target: T1, human CD80-Avi-tag (human, UniProt P33681 35-242); test: SPR (Biacore 8K, 25 °C), hCD80 immobilized, 1:1 binding model
T1 construct: also called immobilized human CD80; not shown: Avi-tag
T1 sequence (looked up): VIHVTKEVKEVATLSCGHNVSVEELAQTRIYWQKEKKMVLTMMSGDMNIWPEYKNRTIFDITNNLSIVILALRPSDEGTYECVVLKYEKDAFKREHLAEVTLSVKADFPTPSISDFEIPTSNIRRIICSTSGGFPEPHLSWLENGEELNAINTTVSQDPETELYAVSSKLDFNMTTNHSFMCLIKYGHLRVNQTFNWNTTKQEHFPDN
Method: (§1) To evaluate binding of the bispecific binding proteins disclosed herein, surface plasmon resonance (SPR) studies were performed on a Biacore 8k instrument (GE Healthcare) at 25° C. The binding of the protein analytes was tested in buffer: 10 mM HEPES, 150 mM NaCl, 3 mM EDTA, 0.05% TWEEN20, pH7.4 on surfaces consisting of a low density (˜200RU) of human CD40-Avi-tag or human CD80-Avi-tag which had been immobilized on NA-coated CM5 chips using standard protocol. The protein analytes were injected in a titration series at a flowrate of 50 ul/min. The data were analyzed using the Biacore Insight Evaluation software. An 1:1 binding kinetic and affinity models are applied for experimental data analysis. The value for the equilibrium dissociation constant (KD) was calculated as the ratio of the rate constants Kd/Ka.

human CD40-Avi-tag = molecular target: T2, human CD40-Avi-tag (human, UniProt P25942 21-193); test: SPR (Biacore 8K, 25 °C), hCD40 immobilized, 1:1 binding model
T2 construct: Immobilized on NA-coated CM5 chips at about 200 RU; not shown: Avi-tag
Method: as §1

T2 sequence (P25942 21-193 limits assumed): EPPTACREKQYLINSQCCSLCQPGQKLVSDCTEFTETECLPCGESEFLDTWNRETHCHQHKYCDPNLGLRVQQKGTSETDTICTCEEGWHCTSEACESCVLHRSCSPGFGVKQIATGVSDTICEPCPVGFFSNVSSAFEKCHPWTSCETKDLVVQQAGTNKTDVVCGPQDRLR

Kd (human CD80-Avi-tag): 154 nM
koff (human CD80-Avi-tag): 0.12 s⁻¹
kon (human CD80-Avi-tag): 780000 M⁻¹ s⁻¹
Kd (human CD40-Avi-tag): 0.325 nM
koff (human CD40-Avi-tag): 9.84e-05 s⁻¹
kon (human CD40-Avi-tag): 303000 M⁻¹ s⁻¹
B1: α-CD40/CTLA-4 bispecific protein (SEQ ID NO: 2 with SEQ ID NO: 11) (bispecific antibody, human IgG4 S228P, kappa)
heavy: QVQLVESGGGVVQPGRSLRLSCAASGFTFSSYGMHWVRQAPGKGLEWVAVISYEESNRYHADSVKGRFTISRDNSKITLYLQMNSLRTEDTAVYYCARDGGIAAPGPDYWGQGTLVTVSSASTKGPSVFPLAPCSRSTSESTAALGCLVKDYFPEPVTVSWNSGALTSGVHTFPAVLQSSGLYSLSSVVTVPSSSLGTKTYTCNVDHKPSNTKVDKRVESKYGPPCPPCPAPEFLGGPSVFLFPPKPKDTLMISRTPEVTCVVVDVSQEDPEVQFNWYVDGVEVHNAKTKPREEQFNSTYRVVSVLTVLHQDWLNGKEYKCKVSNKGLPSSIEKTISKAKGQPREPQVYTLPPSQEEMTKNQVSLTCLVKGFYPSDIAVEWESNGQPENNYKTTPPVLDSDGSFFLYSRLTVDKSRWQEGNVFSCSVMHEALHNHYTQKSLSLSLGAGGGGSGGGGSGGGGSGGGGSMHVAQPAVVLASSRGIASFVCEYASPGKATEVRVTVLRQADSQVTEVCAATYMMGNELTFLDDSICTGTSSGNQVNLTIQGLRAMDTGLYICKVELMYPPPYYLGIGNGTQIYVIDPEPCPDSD
light: DIVMTQSPLSLTVTPGEPASISCRSSQSLLYSNGYNYLDWYLQKPGQSPQVLISLGSNRASGVPDRFSGSGSGTDFTLKISRVEAEDVGVYYCMQARQTPFTFGPGTKVDIRRTVAAPSVFIFPPSDEQLKSGTASVVCLLNNFYPREAKVQWKVDNALQSGNSQESVTEQDSKDSTYSLSSTLTLSKADYEKHKVYACEVTHQGLSSPVTKSFNRGEC
notes: also called Duotein-B; exemplary α-CD40/CTLA-4 bispecific protein
